The values that follow come from patent US20090123479A1 (published 2009).

Experiment [1] deals with T1, recombinant human IL-23 (human, UniProt Q9NPF7 20-189; P29460 23-328).
T1 construct: also called hIL-23
T1 sequence 1: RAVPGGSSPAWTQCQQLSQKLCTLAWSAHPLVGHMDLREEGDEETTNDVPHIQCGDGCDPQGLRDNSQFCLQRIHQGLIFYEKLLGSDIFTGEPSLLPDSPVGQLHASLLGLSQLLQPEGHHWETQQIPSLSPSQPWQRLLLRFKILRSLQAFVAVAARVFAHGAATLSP
T1 sequence 2: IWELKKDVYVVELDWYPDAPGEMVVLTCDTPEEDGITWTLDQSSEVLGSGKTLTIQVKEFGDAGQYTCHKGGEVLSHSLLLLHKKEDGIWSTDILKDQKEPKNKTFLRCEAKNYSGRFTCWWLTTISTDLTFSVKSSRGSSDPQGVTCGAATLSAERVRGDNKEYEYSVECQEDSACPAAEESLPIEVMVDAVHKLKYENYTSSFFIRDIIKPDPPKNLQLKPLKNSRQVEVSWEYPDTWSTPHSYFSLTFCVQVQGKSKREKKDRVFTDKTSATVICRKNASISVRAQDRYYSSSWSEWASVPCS
In words: sandwich ELISA (optimised protocol, OD450): plate coated with anti-human IL-12, antibody pre-incubated with constant human IL-23, bound antibody detected with anti-human IgG gamma chain HRP; purified antibody. The protocol:
Optimised assay conditions: Plates were coated with anti human IL12 at 2 μg/diluent (phosphate buffered saline). 50 μl/well of this mixture was incubated overnight at 4° C. The plates were then washed three times with Phosphate Buffered Saline with 0.05% Tween 20 (PBST). Plates were blocked with 4% skim milk powder (Fluka BioChemika #70166) PBS 200 μl/well for a minimum of 1 hour at room temperature. The plates were then washed three times with Phosphate Buffered Saline+0.05% Tween 20 (PBST). Various concentrations of antibody were incubated in a separate plate with a constant concentration of IL-23 for 1 hour at room temperature. 50 ul of each mixture were transferred to the assay plate and incubated at RT for 1 hr. They were then washed three times with Phosphate Buffered Saline+0.05% Tween 20 (PBST). […] 50 μl/well of the detection antibody was added and incubated at RT for 1 hour. The plates were then washed three times with Phosphate Buffered Saline+0.05% Tween 20 (PBST). 50 μl/well of TMB was added to the plates and incubated at RT for 10 min. 50 μl/well of 1 MH₂SO₄ was added. The plate was read at OD450 nm using the SOftmaxPRO versamax plate reader.

The target in experiment [2] is T2, Endogenous human IL-23 (human, UniProt Q9NPF7 20-189; P29460 23-328).
T2 construct: also called endogenous human IL-23 from stimulated dendritic cells
T2 sequence 1: T1 sequence 1
T2 sequence 2: T1 sequence 2
The experiment in a line: receptor inhibition ELISA in 25% human pooled AB serum: plate coated with recombinant human IL-23 receptor, endogenous human IL-23 at 5 ng/ml pre-incubated with titrated purified antibody, bound IL-23 detected with biotinylated anti-human IL-12. The protocol: Recombinant human IL-23 Receptor (R&D systems 1400-IR-050) was coated onto 96 well plates at a concentration of 1 μg/ml. Endogenous human IL-23 at 5 ng/ml final, was pre incubated with a titration of purified mAbs before being added to the pre-coated plates. Detection was performed with biotinylated anti-human IL12 (R&D systems BAF-219), followed by Streptavidin-HRP (GE Healthcare RPN 4401). This neutralisation ELISA used 25% human pooled AB type serum.

Experiment [3] addresses T1, recombinant human IL-23. In words: SPR (Biacore T100), purified antibody captured on anti-human IgG, IL-23 analyte (different source of IL-23), 1:1 model. As for the experimental part:
Biacore analysis was carried out using a capture surface on a CM5 chip. Anti-human IgG (BR-1008-39) was used as the capturing agent. Anti-human IgG was coupled to a CM5 biosensor chip by primary amine coupling. Humanized antibody was captured on this immobilised surface and defined concentrations of IL-23 were passed over this captured surface. An injection of buffer over the captured antibody surface was used for double-referencing. […] T100 Biacore machine was used to generate the data; all runs were carried out at 25° C. using HBS EP. Data was analysed using the software inherent to the machine and fitted to the 1:1 model of binding. Tables 7 and 8 detail the IL-23 binding analysis carried out on the 8C92H6.HC1LC1 chimera and selected humanized variants in two separate experiments. Data presented in Tables 7 and 8 are from purified antibody samples. The data shown for the humanized variants is representative of a number of runs. The chimeric mAb (8C9H6.HC1LC1) was only run once in each experiment, so data shown for this mAb is from that one run.

In experiment [4] the target is T2, Endogenous human IL-23. In words: receptor inhibition ELISA: plate coated with recombinant human IL-23 receptor, endogenous human IL-23 at 3.5 ng/ml pre-incubated with titrated purified antibody, bound IL-23 detected with biotinylated anti-human IL-12; 1% BSA. The protocol:
Recombinant human IL-23 Receptor (R&D systems 1400-IR-050) was coated onto 96 well plates at a concentration of 1 μg/ml. Endogenous human IL-23 at 3.5 ng/ml final, was pre incubated for 1 hour with a titration of purified antibody material before being added to the pre-coated plates. Detection was performed with biotinylated anti-human 1L12 (R&D systems BAF-219) followed by Streptavidin-HRP (GE Healthcare RPN 4401). This neutralisation ELISA used 1% BSA.

B1: A3M0 (antibody, human IgG1, kappa, V domains shown)
VH: QVQLVQSGAEVKKPGSSVKVSCKASGYTFTSYGITWVRQAPGQGLEWMGENYPRSGNTYYNEKFKGRVTITADKSTSTAYMELSSLRSEDTAVYYCARSEFISTVVAPYYYALDYWGQGTLVTVSS
VL: DIVMTQSPDSLAVSLGERATINCKASKKVTIFGSISALHWYQQKPGQPPKLIYNGAKLESGVPDRFSGSGSGTDFTLTISSLQAEDVAVYYCLQNKEVPYTFGGGTKVEIKR
notes: Full length chains; also called humanized mAb A3M0
As for B1, the “EC50 (read off the curve)” value with recombinant human IL-23 [1] is approximately 0.03 nM. In addition, the “IC50 (read off the curve)” value in the experiment with Endogenous human IL-23 [2] is approximately 0.01 µg/mL. For the same molecule, in the experiment with recombinant human IL-23 [3], the dissociation constant Kd stood at 0.19 nM, the off-rate constant (koff) came to 0.00024 s⁻¹ and the kon was 1.27e+06 M⁻¹ s⁻¹. For the same molecule, in the experiment with Endogenous human IL-23 [4], the “IC50 (read off the curve)” value is approximately 0.005 µg/mL.

B2: chimeric 8C92H6 HC1LC1 (antibody, V domains shown)
VH: QVQLQQSGAELARPGTSVKLSCKASGYTFTSYGITWVKQRTGQGLEWIGENYPRSGNTYYNEKFKGKATLTADKSSSTAYMELRSLTSEDSAVYFCARCEFISTVVAPYYYALDYWGQGTSLVTVS
VL: DIVLTQSPASLAVSLGQKATISCKASKKVTIFGSISALHWYQQKPGQPPKLIYNGAKLESGVSARFSDSGSQNRSPFGNQLSFTLTIDPVEADDAATYYCLQNKEVPYTFGGGTKLEIKR
notes: Murine variable regions with human constant regions; also called 8C92H6.HC1LC1 Chimera; 8C9 chimera
Take B2: the “EC50 (read off the curve)” value with recombinant human IL-23 [1] is approximately 0.1 nM. The “IC50 (read off the curve)” value in the experiment with Endogenous human IL-23 [2] was approximately 0.02 µg/mL. In addition, in the experiment with recombinant human IL-23 [3], the Kd came to 0.364 nM, the koff came to 0.000337 s⁻¹ and the kon turned out to be 925000 M⁻¹ s⁻¹. Also, the “IC50 (read off the curve)” value in the experiment with Endogenous human IL-23 [4] was approximately 0.1 µg/mL.
